In US11192948B2, “Compositions and methods for inhibiting cancer stem cells” (MedImmune Limited, priority 2015, dated 2021):

B1: LX5140110: LOX1-specific monoclonal antibody; VH SEQ ID NO: 4, VL SEQ ID NO: 33 (antibody, V domains shown)
VH: QVQLVQSGAEVKKPGASVKVSCKVSGYTLTELSMHWVRQAPGKGLEWMGGFDPEDFKYHTHQKFQGRVTMTEDTSTDTAYMELSSLRSEDTAVYYCALVWGTQGKGVRGWDYYYGMDVWGQGTTVTVSS
VL: QSVVTQPPSVSGAPGQRVTISCTGSSSNIGAGYDVHWYQQLPGTAPKLLIYGNSNRPSGVPDRFSGSKSGTSASLAITGLQAEDEADYYCQSYDSSLSGWVFGGGTKLTVL
modifications: LX5140110 Heavy Chain sequence; LX5140110 Light Chain sequence

Assays:
Cytivia cardiomyocytes = test: Doxorubicin-mediated cardiomyocyte damage (calcium, viability imaging); format: cell-based
Method: Next, we sought to determine if inhibiting LOX1 could block doxorubicin-mediated cardiomyocyte damage. Cytivia™ cardiomyocytes were purchased from GE Healthcare and plated following manufacturer's instructions with the substitution of bovine fibronectin for human fibronectin. Cells were allowed to adhere for 4 days and then medium was changed. At days 5-7, medium was removed and cells were pre-incubated with the indicated concentration of LX5140110 for 4 hours prior to the addition of 5 μM doxorubicin (DOX). After addition of DOX, cells were incubated for a further 24 hours. After incubation, media was removed and cells were stained with DAPI (1:4000 dilution of 1 mg/mL), TOTO-3 (1 uL of dye solution per 1 mL of medium), and 5 μM Fluo-4. Cells were incubated for 1 hour at 37° C. and then imaged on Image on GE IN Cell Analyzer. Viability was determined by obtaining the number of cells excluding DAPI and TOTO-3 dyes while Fluo-4 was used to determine calcium concentrations. It is known that cardiomyocytes show an increase in calcium load during endotoxin induced cardiac dysfunction. (Thompson et al., Pediatric Research (2000) 47: 669-676).

Pan02.13 cells [1] = test: Percentage of CSCs (EpCAM+CD24+CD44+) in Pan02.13 by flow cytometry; format: cell-based; conditions: 4 days; for effect of single agent on percentage of CSCs: LX5140110 50 μg/mL or gemcitabine 100 ng/mL
Text: (§1) Given that chemotherapies and even some targeted therapies can enrich for CSCs despite the reductions in tumor burden, combination approaches using a CSC-specific targeted therapy in combination with these agents becomes an attractive approach to treatment of cancer patients. Since LX5140110 targets CSCs specifically, we sought to address the combined effects of the current standard of care chemotherapy for pancreatic cancer, gemcitabine, and LX5140110. First the ability of gemcitabine to inhibit the Pan02.13 was tested. Pan02.13 cells were plated under standard tissue culture conditions with and without 100 ng/mL gemcitabine in a tissue culture coated flat-bottomed plate (n=10). […] To determine the effects of treatments on CSCs, Pan02.13 was treated in standard tissue culture conditions for 4 days with either 50 μg/mL of LX5140110 or a control antibody and with or without 100 ng/mL of gemcitabine (GEM) then analyzed for the percentage of CSCs by flow cytometry. The percentage of CSCs (EpCAM+CD24+CD44+) was determined for each treatment condition. The cells were first gated for single, viable cells using scatter and DAPI. Fluorescence minus one (FMO) controls were utilized for gating, with the EpCAM+population analyzed for CD44 and CD24 expression.

Pan02.13 cells [2] = test: Pan02.13 cell growth under standard tissue culture conditions; format: cell-based; conditions: 100 ng/mL; P<0.001
Text: as §1

[3] = system: PA-0165 pancreatic PDX CSCs; test: Tumor sphere formation of pancreatic PDX model PA-0165; format: cell-based, human; conditions: compared to STEM0268
Method: STEM0268 inhibits cancer stem cells. […] Briefly, cells were dissociated using 200 units/mL of collagenase IV plated, washed counted and resuspended at 30,000 cells/mL in MSCGM (Lonza) and plated in an ultra-low attachment 6-well plate. Antibodies were added to appropriate wells at 50 μg/mL. Following incubation for 4 days, spheres were harvested, dissociated and replated in a similar manner to generate secondary spheres and assess the ability of CSCs to self-renew. […] Salinomycin (1 μM) served as the positive control in both of these experiments (Gupta P B et al. 2009).

PA-0143 PDX tumors = test: In vivo study with PA-0143 PDX tumors; set-up: species or system NSG mice
Method: An in vivo study with PA-0143, was run to determine the ability of LX5140110 to inhibit CSCs in vivo. PA-0143 PDX tumors were passaged by trocar implantation of tumor fragments into 6-8 week old NSG mice (NOD.Cg-Prkdc^scid Il2rg^tmIWjl/SzJ) and allowed to grow to −300 mm^3 at which point they were randomized and treated with subcutaneous injections of either a control IgG1 mAb or LX5140110 at 30 mg/kg twice-weekly for 2 weeks (FIG. 8A). […] Twenty-four hours after the last dose of antibodies, tumors were removed from a subset of the mice and analyzed for the percentage of CSCs.

pancreatic cell lines = test: Inhibition of CSCs in pancreatic cell lines; format: cell-based; conditions: multiple pancreatic cell lines
Text: To further confirm the ability of a LOX1 inhibitor to inhibit CSC sphere formation, a LOX1-specific monoclonal antibody (mAb), LX5140110, which comprises a VL comprising SEQ ID NO: 33 and a VH comprising SEQ ID NO: 4 (see, e.g., Table 1), was compared to STEM0268 for their ability to inhibit sphere formation in the pancreatic PDX models.

colorectal cell lines = test: Inhibition of CSCs in colorectal cell lines; format: cell-based
[4] = system: PA-0143 pancreatic PDX CSCs; test: Tumor sphere formation of pancreatic PDX model PA-0143; format: cell-based, human; conditions: compared to STEM0268
Method: DARPins showing the preferred binding patterns were screened for their ability to inhibit sphere formation using one of the pancreatic PDX models (PA-0143) used for selections. Briefly, following dissociation of the tumor cells they were plated in 96-well ultra-low attachment plates containing MSCGM with 50 ug/mL DARPins. All DARPins were tested in triplicate. After 4 days plates were read and inhibitory molecules were identified as showing inhibitory activity at least 1 standard deviation (SD) from the mean of the untreated and control DARPin-treated wells. A second assay based on expression of EZH2 in CSCs was also run. We have previously shown in pancreatic cancer that CSCs can be identified based on their high expression of EZH2 and trimethylation of histone 3 on lysine 27 (Van Vlerken L et al. 2013 EZH2 is required for breast and pancreatic cancer stem cell maintenance and can be used as a functional cancer stem cell reporter Stem Cells Transl Med 2(1):43-52). Using HPAC cells, the EZH2 assay was performed as previously described with the inclusion of 50 μg/mL DARPin. […]
STEM0268 inhibits cancer stem cells. […] Briefly, cells were dissociated using 200 units/mL of collagenase IV plated, washed counted and resuspended at 30,000 cells/mL in MSCGM (Lonza) and plated in an ultra-low attachment 6-well plate. […]

[5] = 50 μg/mL with 100 ng/mL gemcitabine
[6] = 4 hours pre-incubation before 5 μM DOX

Row | Molecule | viability of cardiomyocytes (Cytivia cardiomyocytes; 5 μM DOX, 24 hours) | increase of calcium concentration (Cytivia cardiomyocytes; 5 μM DOX, 24 hours, compared to untreated controls) | effect of single agent on percentage of CSCs (Pan02.13 cells [1]) | cell numbers (Pan02.13 cells [2]) | inhibition of sphere formation (in words) [3] | tumor growth (PA-0143 PDX tumors; 30 mg/kg subcutaneous twice-weekly for 2 weeks, vs vehicle and control IgG1, P<0.001) | percentage of CSCs in tumors (PA-0143 PDX tumors; 24 hours after last dose, compared to vehicle control) | inhibition of CSCs (pancreatic cell lines) | effect on gemcitabine-induced enrichment of CSCs (Pan02.13 cells [1]; [5]) | percentage of CSCs of viable cells (Pan02.13 cells [1]; [5]) [%] | inhibition of CSCs (colorectal cell lines) | effect on DOX-induced accumulation of calcium (Cytivia cardiomyocytes; [6]) | effect on DOX-induced decrease of viability (Cytivia cardiomyocytes; [6]) | inhibition of sphere formation (in words) [4]
1 | COc1cccc2c1C(=O)c1c(O)c3c(c(O)c1C2=O)C[C@@](O)(C(=O)CO)C[C@@H]3O[C@H]1C[C@H](N)[C@H](O)[C@H](C)O1 [DOX, doxorubicin, reference compound] | decreased viability | approximately 2.5 fold | – | – | – | – | – | – | – | – | – | – | – | –
2 | Nc1ccn([C@@H]2O[C@H](CO)[C@@H](O)C2(F)F)c(=O)n1 [gemcitabine, reference compound] | – | – | enriched for CSCs | significant reduction in cell numbers | – | – | – | – | – | – | – | – | – | –
3 | B1 | – | – | slight reduction of CSCs | – | inhibited sphere formation | only slightly reduced tumor growth | significant reduction of CSCs | able to inhibit CSCs | inhibited this increase | 0.62 | able to inhibit CSCs | able to inhibit the accumulation of calcium | reversed | inhibited sphere formation
